Experiment [1] concerns the target PKR (Homo sapiens) (UniProt P19525). The conditions noted are these: cited from earlier work.
Experiment [2] shares this target. The following applies: cited from earlier work. The source holds these as a separate data set.
For experiment [3] the target is unchanged. The following applies: cited from earlier work. The source holds these as a separate data set.
Experiment [4] deals with T1, PKR (double-stranded RNA-activated protein kinase) (Homo sapiens, UniProt P19525). Put plainly: radiolabeled ATP binding, ZipTip-C4 separation.
In experiment [5] the target is T1, PKR (double-stranded RNA-activated protein kinase). Put plainly: fluorescence polarization, direct titration. Type of experiment: binding. On the technique in general: Fluorescence polarisation rises when a labelled molecule tumbles more slowly, as on binding a larger partner.
Experiment [6] has as its target bovine serum albumin (BSA) (Bos taurus, UniProt P02769). Put plainly: fluorescence polarization, direct titration. It counts as binding.

We go through 3 compounds from paper PMC3035770 (Biochemistry, 2011).

Like-named read-outs stand apart in the source and are kept apart here.

bovine serum albumin (BSA), sequence (P02769 25-607): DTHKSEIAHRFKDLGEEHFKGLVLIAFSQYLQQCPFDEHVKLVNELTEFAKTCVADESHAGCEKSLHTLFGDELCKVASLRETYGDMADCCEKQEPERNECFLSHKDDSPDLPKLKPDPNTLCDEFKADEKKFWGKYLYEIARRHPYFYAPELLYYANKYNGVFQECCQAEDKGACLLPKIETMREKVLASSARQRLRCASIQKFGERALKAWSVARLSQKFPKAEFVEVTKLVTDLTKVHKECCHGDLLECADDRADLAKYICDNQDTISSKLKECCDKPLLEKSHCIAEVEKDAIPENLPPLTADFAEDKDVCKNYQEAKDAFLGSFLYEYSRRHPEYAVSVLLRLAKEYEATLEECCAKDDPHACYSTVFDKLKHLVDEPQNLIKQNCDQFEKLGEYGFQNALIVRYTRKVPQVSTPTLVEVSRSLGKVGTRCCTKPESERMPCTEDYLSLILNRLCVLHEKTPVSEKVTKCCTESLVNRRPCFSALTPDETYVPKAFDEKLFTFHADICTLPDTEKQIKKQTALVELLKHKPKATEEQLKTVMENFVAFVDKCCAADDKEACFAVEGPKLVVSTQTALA

One may read the Kd as the constant that tells how readily two partners part at equilibrium. For the compound PKR (from UniProt P19525), the Kd was 20 µM in the experiment with PKR (Homo sapiens) [1], 75 µM in the experiment with PKR (Homo sapiens) [2] and 500 µM with PKR (Homo sapiens) [3].
For the compound `Nc1ncnc2c1ncn2[C@@H]1O[C@H](COP(=O)(O)OP(=O)(O)OP(=O)(O)O)[C@@H](O)[C@H]1O` [ATP], the “% bound” value in experiment [4] turned out to be 16.61 % bound.
Consider `CC1=CC(C)=[N+]2C1=Cc1ccc(CCCCCCCCCCCCCCCC(=O)O)n1[B-]2(F)F` [Bodipy-C16, 4,4-difluoro-5,7-dimethyl-4-bora-3a,4a-diaza-s-indacene-3-hexadecanoic acid], for which the Kd in experiment [5] turned out to be 0.0232 ± 0.00128 µM; in experiment [6], 0.0292 ± 0.00185 µM.
